Measurements as given in patent publication US20200308290A1 (AbbVie / Abbott, published 2020).

T1: CD25 on Kit225/K6 cells (human, UniProt P01589 22-272)
T1 sequence (looked up): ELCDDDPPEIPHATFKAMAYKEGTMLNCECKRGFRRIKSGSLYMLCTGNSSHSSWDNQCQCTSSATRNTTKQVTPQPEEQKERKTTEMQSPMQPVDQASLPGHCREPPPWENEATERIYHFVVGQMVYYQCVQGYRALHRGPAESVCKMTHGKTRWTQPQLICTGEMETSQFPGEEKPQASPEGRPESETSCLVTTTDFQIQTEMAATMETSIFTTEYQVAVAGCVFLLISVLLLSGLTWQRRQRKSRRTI

T2: human CD25 (recombinant soluble) (human, UniProt P01589 22-240)
T2 construct: extracellular domain; bought protein; also called IL2-Rα; recombinant human IL2-Rα
T2 sequence (looked up): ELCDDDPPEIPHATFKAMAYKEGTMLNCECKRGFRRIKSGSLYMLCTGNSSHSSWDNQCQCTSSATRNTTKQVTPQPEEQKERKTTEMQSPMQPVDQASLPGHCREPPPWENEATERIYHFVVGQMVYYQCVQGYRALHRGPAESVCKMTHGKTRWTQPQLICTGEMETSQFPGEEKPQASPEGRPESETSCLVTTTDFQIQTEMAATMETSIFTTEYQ


Experiments:
CD25 on Kit225/K6 cells = biological target: T1, CD25 on Kit225/K6 cells; test: cell-based or functional assay
[1] = biological target: T2, human CD25 (recombinant soluble); test: SPR (BIAcore), antibody captured, CD25 injected

Row | Binder | Functional improvement (inhibition of proliferation of Kit225/K6 cells; IC50 normalized to wild type daclizumab) (CD25 on Kit225/K6 cells) [fold] | Affinity improvement (KD normalized to wild type daclizumab) [1] [fold] | Kd [1] [nM] | koff [1] [s⁻¹] | kon [1] [M⁻¹ s⁻¹]
1 | NST-RN (antibody, IgG1, V domains shown) VH: QVQLVQSGAEVKKPGSSVKVSCKASGYTFTSYRMHWVRQAPGQGLEWIGYINPSTGYTEYNQKFKDKATITADESTNTAYMELSSLRSEDTAVYYCARGGGVFDYWGQGTLVTVSS VL: DIQMTQSPSTLSASVGDRVTITCSASSRISYMHWYQQKPGKAPKLLIYTTSNLASGVPARFSGSGSGTEFTLTISSLQPDDFATYYCHQRSTYPLTFGQGTKVEVK | 1.5 |  |  |  | 
2 | RKT-SE (antibody, IgG1, name in Kabat numbering, V domains shown) VH: QVQLVQSGAEVKKPGSSVKVSCKASGYTFTSYRMHWVRQAPGQGLEWIGYIRPKTGYTEYNQKFKDKATITADESTNTAYMELSSLRSEDTAVYYCARGGGVFDYWGQGTLVTVSS VL: DIQMTQSPSTLSASVGDRVTITCSASSSISYMHWYQQKPGKAPKLLIYTTSELASGVPARFSGSGSGTEFTLTISSLQPDDFATYYCHQRSTYPLTFGQGTKVEVK | 2 |  |  |  | 
3 | SRK-SE (antibody, IgG1, name in Kabat numbering, V domains shown, IgG1/kappa; also called S52R53K54 VH with S29E53 VL) VH: QVQLVQSGAEVKKPGSSVKVSCKASGYTFTSYRMHWVRQAPGQGLEWIGYISPRKGYTEYNQKFKDKATITADESTNTAYMELSSLRSEDTAVYYCARGGGVFDYWGQGTLVTVSS VL: DIQMTQSPSTLSASVGDRVTITCSASSSISYMHWYQQKPGKAPKLLIYTTSELASGVPARFSGSGSGTEFTLTISSLQPDDFATYYCHQRSTYPLTFGQGTKVEVK | 3.5 | 31 | 0.016 | 2.18e-05 | 1.38e+06
4 | Y32A (antibody, IgG1, name in Kabat numbering, V domains shown) VH: QVQLVQSGAEVKKPGSSVKVSCKASGYTFTSYRMHWVRQAPGQGLEWIGYINPSTGYTEYNQKFKDKATITADESTNTAYMELSSLRSEDTAVYYCARGGGVFDYWGQGTLVTVSS VL: DIQMTQSPSTLSASVGDRVTITCSASSSISAMHWYQQKPGKAPKLLIYTTSNLASGVPARFSGSGSGTEFTLTISSLQPDDFATYYCHQRSTYPLTFGQGTKVEVK | 0.4 |  |  |  | 
5 | S31A (antibody, IgG1, V domains shown) VH: QVQLVQSGAEVKKPGSSVKVSCKASGYTFTSYRMHWVRQAPGQGLEWIGYINPSTGYTEYNQKFKDKATITADESTNTAYMELSSLRSEDTAVYYCARGGGVFDYWGQGTLVTVSS VL: DIQMTQSPSTLSASVGDRVTITCSASSSIAYMHWYQQKPGKAPKLLIYTTSNLASGVPARFSGSGSGTEFTLTISSLQPDDFATYYCHQRSTYPLTFGQGTKVEVK | 0.7 |  |  |  | 
6 | T50A (antibody, IgG1, V domains shown) VH: QVQLVQSGAEVKKPGSSVKVSCKASGYTFTSYRMHWVRQAPGQGLEWIGYINPSTGYTEYNQKFKDKATITADESTNTAYMELSSLRSEDTAVYYCARGGGVFDYWGQGTLVTVSS VL: DIQMTQSPSTLSASVGDRVTITCSASSSISYMHWYQQKPGKAPKLLIYATSNLASGVPARFSGSGSGTEFTLTISSLQPDDFATYYCHQRSTYPLTFGQGTKVEVK | 0.8 |  |  |  | 
7 | RNR-SE (antibody, IgG1, name in Kabat numbering, V domains shown, IgG1/kappa) VH: QVQLVQSGAEVKKPGSSVKVSCKASGYTFTSYRMHWVRQAPGQGLEWIGYIRPNRGYTEYNQKFKDKATITADESTNTAYMELSSLRSEDTAVYYCARGGGVFDYWGQGTLVTVSS VL: DIQMTQSPSTLSASVGDRVTITCSASSSISYMHWYQQKPGKAPKLLIYTTSELASGVPARFSGSGSGTEFTLTISSLQPDDFATYYCHQRSTYPLTFGQGTKVEVK | 2.4 | 23 | 0.022 | 3.34e-05 | 1.54e+06
